Results on one substance are retold here after doi:10.1101/848226.

The experiment addresses mCherry-CARACB(G15V) (barley (Hordeum vulgare)). Nature of the experiment: FRET or BRET. (In general: BRET reads energy transfer from a luciferase to a nearby fluorophore.)

In turn, GFP-RIC157 (natural protein) showed a GFP lifetime of 2.2 ns.
